# Assays:
# Assay in all cases: anti-GFP IP, LC-MS/MS spectral counts
# Numa1 = Numa1 (UniProt Q14980); conditions: sites S1448
# Beta-pix = Beta-pix (UniProt Q14155); conditions: reference: S1448A GFP-Scribble; sites S1448
# Git1 = Git1 (UniProt Q9Y2X7); conditions: reference: S1448A GFP-Scribble; sites S1448
# Vimentin = Vimentin (UniProt P08670); conditions: reference: S1448A GFP-Scribble; sites S1448
# [1] = reference: wild type GFP-Scribble
Substance,other: spectral counts (Numa1; [1]),other: spectral counts (Beta-pix),other: spectral counts (Git1),other: spectral counts (Numa1; reference: S1448A GFP-Scribble),other: spectral counts (Vimentin)
Scribble (from UniProt Q14160) S1448A GFP-Scribble,weaker; reference 34,,,,
Scribble (from UniProt Q14160) S1448D GFP-Scribble,same; reference 34,same; reference 49,same; reference 72,stronger; reference 8,same; reference 277
